Reference: the Human Domainome abundance scans (Beltran et al. 2025)
± gives the uncertainty stated by the source.

B1: Formin-binding protein 4, residues 200 to 261; numbered along this chain, Q8N3X1 (parent)
chain: SGWQYDTQCSLAGVGIEMGDWQEVWDENTGCYYYWNTQTNEVTWELPQYLATQVQGLQHYQP

Variants of: B1
Experiment: abundance fitness (aPCA) (normalised: wild type 0, dead -1); higher = more abundant; growth selection in yeast, the domain comes from the species named
Settings: Homo sapiens

Variant | abundance fitness
SGLQYDTQCSLAGVGIEMGDWQEVWDENTGCYYYWNTQTNEVTWELPQYLATQVQGLQHYQP | -0.003 ± 0.055
SGAQYDTQCSLAGVGIEMGDWQEVWDENTGCYYYWNTQTNEVTWELPQYLATQVQGLQHYQP | 0.002 ± 0.059
SGTQYDTQCSLAGVGIEMGDWQEVWDENTGCYYYWNTQTNEVTWELPQYLATQVQGLQHYQP | 0.168 ± 0.07
SGIQYDTQCSLAGVGIEMGDWQEVWDENTGCYYYWNTQTNEVTWELPQYLATQVQGLQHYQP | -0.217 ± 0.11
SMWQYDTQCSLAGVGIEMGDWQEVWDENTGCYYYWNTQTNEVTWELPQYLATQVQGLQHYQP | 0.19 ± 0.11
SHWQYDTQCSLAGVGIEMGDWQEVWDENTGCYYYWNTQTNEVTWELPQYLATQVQGLQHYQP | 0.607 ± 0.17
SDWQYDTQCSLAGVGIEMGDWQEVWDENTGCYYYWNTQTNEVTWELPQYLATQVQGLQHYQP | 0.196 ± 0.075
SLWQYDTQCSLAGVGIEMGDWQEVWDENTGCYYYWNTQTNEVTWELPQYLATQVQGLQHYQP | -0.022 ± 0.081
SNWQYDTQCSLAGVGIEMGDWQEVWDENTGCYYYWNTQTNEVTWELPQYLATQVQGLQHYQP | 0.405 ± 0.11
SIWQYDTQCSLAGVGIEMGDWQEVWDENTGCYYYWNTQTNEVTWELPQYLATQVQGLQHYQP | 0.273 ± 0.11
SSWQYDTQCSLAGVGIEMGDWQEVWDENTGCYYYWNTQTNEVTWELPQYLATQVQGLQHYQP | 0.222 ± 0.065
SQWQYDTQCSLAGVGIEMGDWQEVWDENTGCYYYWNTQTNEVTWELPQYLATQVQGLQHYQP | 0.052 ± 0.14
SRWQYDTQCSLAGVGIEMGDWQEVWDENTGCYYYWNTQTNEVTWELPQYLATQVQGLQHYQP | -0.097 ± 0.066
SWWQYDTQCSLAGVGIEMGDWQEVWDENTGCYYYWNTQTNEVTWELPQYLATQVQGLQHYQP | -0.25 ± 0.12
STWQYDTQCSLAGVGIEMGDWQEVWDENTGCYYYWNTQTNEVTWELPQYLATQVQGLQHYQP | 0.328 ± 0.083
SFWQYDTQCSLAGVGIEMGDWQEVWDENTGCYYYWNTQTNEVTWELPQYLATQVQGLQHYQP | 0.071 ± 0.13
SYWQYDTQCSLAGVGIEMGDWQEVWDENTGCYYYWNTQTNEVTWELPQYLATQVQGLQHYQP | 0.422 ± 0.13
SCWQYDTQCSLAGVGIEMGDWQEVWDENTGCYYYWNTQTNEVTWELPQYLATQVQGLQHYQP | -0.276 ± 0.11
SGWDYDTQCSLAGVGIEMGDWQEVWDENTGCYYYWNTQTNEVTWELPQYLATQVQGLQHYQP | 0.182 ± 0.1
SGWAYDTQCSLAGVGIEMGDWQEVWDENTGCYYYWNTQTNEVTWELPQYLATQVQGLQHYQP | -0.447 ± 0.092
SGWWYDTQCSLAGVGIEMGDWQEVWDENTGCYYYWNTQTNEVTWELPQYLATQVQGLQHYQP | -0.241 ± 0.078
SGWHYDTQCSLAGVGIEMGDWQEVWDENTGCYYYWNTQTNEVTWELPQYLATQVQGLQHYQP | 0.126 ± 0.088
SGWCYDTQCSLAGVGIEMGDWQEVWDENTGCYYYWNTQTNEVTWELPQYLATQVQGLQHYQP | -0.051 ± 0.085

Variant | abundance fitness
SGWSYDTQCSLAGVGIEMGDWQEVWDENTGCYYYWNTQTNEVTWELPQYLATQVQGLQHYQP | -0.023 ± 0.055
SGWYYDTQCSLAGVGIEMGDWQEVWDENTGCYYYWNTQTNEVTWELPQYLATQVQGLQHYQP | -0.176 ± 0.097
SGWRYDTQCSLAGVGIEMGDWQEVWDENTGCYYYWNTQTNEVTWELPQYLATQVQGLQHYQP | 0.106 ± 0.053
SGWEYDTQCSLAGVGIEMGDWQEVWDENTGCYYYWNTQTNEVTWELPQYLATQVQGLQHYQP | -0.037 ± 0.11
SGWNYDTQCSLAGVGIEMGDWQEVWDENTGCYYYWNTQTNEVTWELPQYLATQVQGLQHYQP | 0.318 ± 0.088
SGWIYDTQCSLAGVGIEMGDWQEVWDENTGCYYYWNTQTNEVTWELPQYLATQVQGLQHYQP | 0.232 ± 0.085
SGWKYDTQCSLAGVGIEMGDWQEVWDENTGCYYYWNTQTNEVTWELPQYLATQVQGLQHYQP | 0.358 ± 0.088
SGWVYDTQCSLAGVGIEMGDWQEVWDENTGCYYYWNTQTNEVTWELPQYLATQVQGLQHYQP | 0.147 ± 0.061
SGWLYDTQCSLAGVGIEMGDWQEVWDENTGCYYYWNTQTNEVTWELPQYLATQVQGLQHYQP | -0.385 ± 0.065
SGWPYDTQCSLAGVGIEMGDWQEVWDENTGCYYYWNTQTNEVTWELPQYLATQVQGLQHYQP | -0.635 ± 0.12
SGWTYDTQCSLAGVGIEMGDWQEVWDENTGCYYYWNTQTNEVTWELPQYLATQVQGLQHYQP | 0.288 ± 0.07
SGWGYDTQCSLAGVGIEMGDWQEVWDENTGCYYYWNTQTNEVTWELPQYLATQVQGLQHYQP | -0.207 ± 0.073
SGWFYDTQCSLAGVGIEMGDWQEVWDENTGCYYYWNTQTNEVTWELPQYLATQVQGLQHYQP | 0.146 ± 0.083
SGWMYDTQCSLAGVGIEMGDWQEVWDENTGCYYYWNTQTNEVTWELPQYLATQVQGLQHYQP | 0.165 ± 0.089
SGWQHDTQCSLAGVGIEMGDWQEVWDENTGCYYYWNTQTNEVTWELPQYLATQVQGLQHYQP | -0.052 ± 0.13
SGWQIDTQCSLAGVGIEMGDWQEVWDENTGCYYYWNTQTNEVTWELPQYLATQVQGLQHYQP | -0.436 ± 0.12
SGWQGDTQCSLAGVGIEMGDWQEVWDENTGCYYYWNTQTNEVTWELPQYLATQVQGLQHYQP | -0.36 ± 0.093
SGWQDDTQCSLAGVGIEMGDWQEVWDENTGCYYYWNTQTNEVTWELPQYLATQVQGLQHYQP | -0.525 ± 0.17
SGWQADTQCSLAGVGIEMGDWQEVWDENTGCYYYWNTQTNEVTWELPQYLATQVQGLQHYQP | -0.416 ± 0.089
SGWQCDTQCSLAGVGIEMGDWQEVWDENTGCYYYWNTQTNEVTWELPQYLATQVQGLQHYQP | -0.592 ± 0.15
SGWQEDTQCSLAGVGIEMGDWQEVWDENTGCYYYWNTQTNEVTWELPQYLATQVQGLQHYQP | -0.218 ± 0.086
SGWQFDTQCSLAGVGIEMGDWQEVWDENTGCYYYWNTQTNEVTWELPQYLATQVQGLQHYQP | -0.115 ± 0.095
